Assay results published in patent publication US20150004637A1, “SYSTEMS AND METHODS FOR IMAGING AT HIGH SPATIAL AND/OR TEMPORAL PRECISION” (President and Fellows of Harvard College, priority 2011, published 2015).
Where two headings read alike, the source gives them in different places.

B1: Archaerhodopsin 3 (protein)
chain: MDPIALQAGYDLLGDGRPETLWLGIGTLLMLIGTFYFLVRGWGVTDKDAREYYAVTILVPGIASAAYLSMFFGIGLTEVTVGGEMLDIYYARYADWLFTTPLLLLDLALLAKVDRVTIGTLVGVDALMIVTGLIGALSHTAIARYSWWLFSTICMIVVLYFLATSLRSAAKERGPEVASTFNTLTALVLVLWTAYPILWIIGTEGAGVVGLGIETLLFMVLDVTAKVGFGFILLRSRAILGDTEAPEPSAGADVSAAD
modifications: Halorubrum sodomense
notes: Microbial rhodopsin from Halorubrum sodomense, light-driven proton pump used as fluorescent voltage indicator; experiments used an Arch-eGFP fusion
B2: Arch D95N: Archaerhodopsin 3 with aspartic acid 95 mutated to asparagine; non-pumping voltage indicator (protein, UniProt P96787 7-258, looked up, variant D95N)
Archaerhodopsin-3: QAGYDLLGDGRPETLWLGIGTLLMLIGTFYFLVRGWGVTDKDAREYYAVTILVPGIASAAYLSMFFGIGLTEVTVGGEMLDIYYARYANWLFTTPLLLLDLALLAKVDRVTIGTLVGVDALMIVTGLIGALSHTAIARYSWWLFSTICMIVVLYFLATSLRSAAKERGPEVASTFNTLTALVLVLWTAYPILWIIGTEGAGVVGLGIETLLFMVLDVTAKVGFGFILLRSRAILGDTEAPEPSAGADVSAAD

Legend:
[1] = Spectroscopic characterization of Arch WT and D95N (absorption, emission, extinction, quantum yield); type: physicochemical; settings: for λmax em: Excitation at λ=532 nm; for ε633: assuming same peak extinction coefficient as Bacteriorhodopsin, 63,000 M^−1 cm^−1; for QY (fluorescence quantum yield): comparison to Alexa 647, excitation at λ=633 nm; for λmax abs: neutral pH
Procedure: Arch and its D95N mutant were expressed in E. coli. Briefly, E. coli (strain BL21, pet28b plasmid) was grown in 1 L of LB with 100 micrograms/mL kanamycin, to an O.D 600 of 0.4 at 37° C. All-trans retinal (5 micromolar) and inducer (IPTG 0.5 mM) were added and cells were grown for an additional 3.5 hours in the dark. Cells were harvested by centrifugation and resuspended in 50 mM Tris, 2 mM MgCl2 at pH 7.3 and lysed with a tip sonicator for 5 minutes. The lysate was centrifuged and the pellet was resuspended in PBS supplemented with 1.5% dodecyl maltoside (DM). The mixture was homogenized with a glass/Teflon Potter Elvehjem homogenizer and centrifuged again. The solubilized protein in the supernatant was used for experiments.
(2) Spectroscopic characterization of Arch WT and D95N. The absorption spectra of fractionated E. coli membranes containing Arch WT and D95N were determined using an Ocean Optics USB4000 spectrometer with a DT-MINI-2-GS light source (FIG. 8). The peak extinction coefficients of microbial rhodopsins vary across rhodopsin types from 48,000 to 63,000 M^−1 cm^−1. Due to the high homology between Arch and bacteriorhodopsin (BR), the BR extinction coefficient, 63,000 M^−1 cm^−1, was used for Arch. […] For Arch WT, 633 nm was in the tail of the absorption while for Arch D95N 633 nm lay halfway down the shoulder. The relative extinction coefficients of Arch WT and D95N at 633 nm was independent of the choice to use BR as the reference for the peak extinction coefficient. Absorption spectra for Arch WT and D95N were measured as a function of pH between pH 6 and 11.
The fluorescence emission spectra of Arch WT and D95N were determined using illumination with a 100 mW, 532 nm laser (Dragon Lasers, 532GLM100) or a 25 mW, 633 nm HeNe laser (Spectra-Physics) (FIG. 8). Scattered laser light was blocked with a 532 nm Raman notch filter (Omega Optical, XR03) or a 710/100 emission filter (Chroma), and fluorescence was collected perpendicular to the illumination with a 1000 micron fiber, which passed the light to an Ocean Optics QE65000 spectrometer. Spectra were integrated for 2 seconds. Arch WT and D95N both had emission maxima at 687 nm.
The fluorescence quantum yields of Arch WT and D95N were determined by comparing the integrated emission intensity to emission of a sample of the dye Alexa 647. Briefly, the concentrations of micromolar solutions of dye and protein were determined using a visible absorption spectrum. The extinction coefficients of 270,000 M^−1cm^−1 for Alexa 647 and 63,000 M^−1 cm^−1 for Arch WT and D95N were used, assuming that these microbial rhodopsins have the same extinction coefficient as bacteriorhodopsin. […] The fluorescence emission spectra of dye and protein samples were measured with 633 nm excitation. The quantum yield was then determined by the formula
where Fl is the integrated fluorescence from 660 to 760 nm, epsilon (∈) is the extinction coefficient at 633 nm and c is the concentration.

[2] = system: HEK cells; test: Frequency response and noise of membrane potential estimated from fluorescence; type: cell-based; settings: for noise / accuracy of voltage estimated from fluorescence: HEK cells, after calibration with voltage ramp −150 to +150 mV; for Noise in V̂FL: frequencies f≧0.1 Hz in HEK cells
Procedure: For the data of FIG. 9, a chirped sine wave with an amplitude of about 50 mV and frequency from about 1 Hz to about 1 kHz was applied to the cell. Membrane potential VFL was determined from fluorescence and the Fourier transform of VFL was calculated. The uptick at about 1 kHz is an artifact of electronic compensation circuitry. […] The noise figures reported here are specific to our imaging system and serve primarily as an indicator of the possible sensitivity of Arch.
(8) Frequency-dependent response functions of Arch WT and D95N. Test waveforms consisted of a concatenated series of sine waves, each of duration 2 s, amplitude 100 mV, zero mean, and frequencies uniformly spaced on a logarithmic scale between 1 Hz and 1 kHz (31 frequencies total). The waveforms were discretized at 10 kHz and applied to the cell, while fluorescence movies were acquired at a frame rate of 2 kHz.
The model parameters for extracting VFL(t) were calculated from the fluorescence response to low frequency voltages. These parameters were then used to calculate an estimated voltage at all frequencies.
The applied voltage was downsampled to 2 kHz to mimic the response of a voltage indicator with instantaneous response. For each applied frequency, the Fourier transform of VFL(t) was calculated and divided by the Fourier transform of the downsampled V(t). The amplitude of this ratio determined the response sensitivity. It was important in some cases to properly compensate pipette resistance and cell membrane capacitance to obtain accurate response spectra.
The power spectrum of VFL(t) under constant V=0 was also measured to enable calculations of signal-to-noise ratio for any applied V(t).
In these examples, a measure of the performance of a voltage indicator which reported the information content of the fluorescence signal was used, including an algorithm to infer membrane potential from a series of fluorescence images. The accuracy with which the estimated membrane potential matched the true membrane potential was used (as reported by patch clamp recording) as a measure of indicator performance.
The estimated membrane potential, VFL(t), was determined from the fluorescence in two steps. First a model was trained relating membrane potential to fluorescence at each pixel. A highly simplified model that the fluorescence signal, Si(t), at pixel i and time t, is given by: […]

[3] = system: HEK cells; test: Photocurrents under voltage clamp; type: cell-based; settings: for Photocurrent: HEK cells clamped at V=0, 640 nm, 1800 W/cm^2
Procedure: Measurements of photocurrents were performed on HEK cells held in voltage clamp at 0 mV while being exposed to brief (200 ms) pulses of illumination at 640 nm at an intensity of 1800 W/cm^2.

Molecule	λmax em [1] [nm]	λmax em ([1]; listed as Arch)	ε633 [1]	QY (fluorescence quantum yield) [1]	QY (fluorescence quantum yield) ([1]; listed as Arch)	λmax abs [1] [nm]	noise / accuracy of voltage estimated from fluorescence [2]	Noise in V̂FL [2] [μV/Hz^1/2]	fluorescence oscillation amplitude retained relative to low-frequency amplitude ([2]; sinusoidal membrane potential, f≈1 kHz)	shot-noise limited noise floor in V̂FL ([2]; voltage clamp at constant V=0 mV, frequencies above about 10 Hz)	Photocurrent [3]	outward photocurrent induced by imaging laser ([3]; HEK cells, 640 nm)	λmax abs ([1]; listed as Arch^D95N)	λmax abs ([1]; listed as D95N) [nm]	photocurrent / proton pumping (words) [3]	photocurrent / proton pumping (words) ([3]; listed as Arch 3 D95N)	photocurrent / proton pumping (words) ([3]; listed as D95N)
B1	687	≈ 687 nm	6,300 M^−1 cm^−1	9 × 10^−4	about 9×10^−4	558	about 625 μV/(Hz)^1/2	625	about 55%	about 470 μV/(Hz)^1/2	yes	10-20 pA					
B2	687		37,500 M^−1 cm^−1	4 × 10^−4		585	260 μV/(Hz)^1/2	260			no		about 585 nm	585	lacked endogenous proton pumping	lacks photoinduced proton pumping	eliminated the photocurrent
